Measurements reported in the supplement of paper PMC10057847, “Precision engineering of biological function with large-scale measurements and machine learning” (PLOS ONE, 2023).
± gives the uncertainty stated by the source.

B1: library; the commonest letter at each place (parent)
chain: MKPVTLYDVAEYAGVSYQTVSRVVNQASHVSAKTREKVEAAMAELNYIPNRVAQQLAGKQSLLIGVATSSLALHAPSQIVAAIKSRADQLGASVVVSMVERSGVEACKAAVHNLLAQRVSGLIINYPLDDQDAIAVEAACTNVPALFLDVSDQTPINSIIFSHEDGTRLGVEHLVALGHQQIALLAGPLSSVSARLRLAGWHKYLTRNQIQPIAEREGDWSAMSGFQQTMQMLNEGIVPTAMLVANDQMALGAMRAITESGLRVGADISVVGYDDTEDSSCYIPPLTTIKQDFRLLGQTSVDRLLQLSQGQAVKGNQLLPVSLVKRKTTLAPNTQTASPRALADSLMQLARQVSRLESGQ

Assays:
Conditions in all cases: with IPTG
IPTG [1] = variants of: B1
Description: (§1)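 LacI variants on the pVER plasmid regulate eYFP behind lacO in E. coli MG1655Δlac, grown in rich M9 at 37 °C with a 2-fold IPTG dilution series. After two 160-min growth steps, YFP is read by flow cytometry and calibrated to MEF. Bayesian MCMC fits of the Hill equation give G0, G∞, EC50 and n (posterior mean ± SD).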

IPTG [2] = variants of: B1; test: Hill coefficient n (dimensionless); higher = steeper dose response
Description: as §1

IPTG [3] = variants of: B1; test: basal output G0 (YFP, no IPTG) (log10 MEF); higher = higher reporter expression without inducer
Description: as §1

IPTG [4] = variants of: B1; test: saturating output G-infinity (YFP) (log10 MEF); higher = higher reporter expression at saturating IPTG
Description: as §1

| Variant | EC50 for IPTG (log10 µmol/L) (IPTG [1]) | Hill coefficient n (IPTG [2]) | basal output G0 (log10) (IPTG [3]) | saturating output G-infinity (log10) (IPTG [4]) |
| --- | --- | --- | --- | --- |
| V94M S190C G200A Q209R R263H Q317L | 1.44 ± 0.025 | 1.4 ± 0.072 | 3.418 ± 0.023 | 4.454 ± 0.0086 |
| I160N Q231H I289V D302E | 2.6 ± 0.026 | 1.67 ± 0.073 | 2.06 ± 0.43 | 4.284 ± 0.015 |
| A194V | 3.35 ± 0.048 | 1.61 ± 0.06 | 2.01 ± 0.08 | 4.322 ± 0.041 |
| I83M S97T V136E | 2.29 ± 0.05 | 0.765 ± 0.058 | 4.52 ± 0.0074 | 4.113 ± 0.012 |
| M42I R51C | 1.496 ± 0.014 | 1.6 ± 0.058 | 3.21 ± 0.035 | 4.511 ± 0.0051 |
| Q181H | 2.037 ± 0.0042 | 1.625 ± 0.015 | 2.24 ± 0.049 | 4.4146 ± 0.0018 |
| D88G | 2.671 ± 0.015 | 1.41 ± 0.046 | 0.914 ± 0.56 | 3.854 ± 0.0057 |
| D88N | 2.843 ± 0.028 | 1.33 ± 0.086 | 0.96 ± 0.58 | 3.479 ± 0.0093 |
| S77P E105V | 2.049 ± 0.0095 | 1.59 ± 0.043 | 2.53 ± 0.067 | 4.1995 ± 0.004 |
| L90Q R101G C140G L169Q K290I T329S | 1.57 ± 0.01 | 1.54 ± 0.041 | 3.06 ± 0.033 | 4.4822 ± 0.004 |
| H74Y A92V H112L S151T D165N H179Q | 1.29 ± 0.014 | 1.54 ± 0.049 | 4.426 ± 0.0049 | 3.262 ± 0.017 |
| V136E F161V | 3.713 ± 0.031 | 1.84 ± 0.2 | 4.516 ± 0.0031 | 4.229 ± 0.011 |
| L90Q L198M E235D T336S | 1.88 ± 0.022 | 1.61 ± 0.073 | 2.51 ± 0.2 | 4.423 ± 0.0091 |
| S70R V271M | 1.521 ± 0.012 | 1.46 ± 0.044 | 2.7 ± 0.066 | 4.268 ± 0.0045 |
| V136E | 1.69 ± 0.034 | 1.5 ± 0.13 | 2.46 ± 0.36 | 4.015 ± 0.014 |
| S69T L169P | 2.348 ± 0.019 | 1.43 ± 0.062 | 2.68 ± 0.082 | 4.362 ± 0.0071 |
| V80L S279T | 1.566 ± 0.0048 | 1.56 ± 0.023 | 2.07 ± 0.088 | 3.9365 ± 0.0017 |
| I83M S97T | 2.18 ± 0.046 | 1.52 ± 0.16 | 1.25 ± 0.81 | 4.399 ± 0.017 |
| Q317L | 2.051 ± 0.0097 | 1.66 ± 0.041 | 2.08 ± 0.5 | 4.4477 ± 0.0044 |
| V80L I83M | 2.444 ± 0.013 | 1.37 ± 0.045 | 0.521 ± 0.46 | 3.718 ± 0.0043 |
| S69T I83M S97T | 1.957 ± 0.0053 | 1.61 ± 0.017 | 1.17 ± 0.54 | 4.4073 ± 0.0024 |

| Variant | EC50 for IPTG (log10 µmol/L) (IPTG [1]) | Hill coefficient n (IPTG [2]) | basal output G0 (log10) (IPTG [3]) | saturating output G-infinity (log10) (IPTG [4]) |
| --- | --- | --- | --- | --- |
| V80L S97T | 1.611 ± 0.0061 | 1.57 ± 0.031 | 2.33 ± 0.069 | 4.0264 ± 0.0022 |
| E44D R101G R303S R355L | 1.62 ± 0.023 | 1.53 ± 0.093 | 2.44 ± 0.76 | 4.461 ± 0.0089 |
| V95M Q335R Q360R | 2.01 ± 0.05 | 1.49 ± 0.13 | 2.02 ± 0.65 | 4.169 ± 0.022 |
| N113D D132N T154R M242I V313A K314N R340S | 2.033 ± 0.011 | 1.64 ± 0.048 | 1.59 ± 0.65 | 4.226 ± 0.0048 |
| L56M | 1.05 ± 0.033 | 1.39 ± 0.12 | 3.976 ± 0.018 | 4.548 ± 0.0075 |
| V99E A116T T141I S190C | 0.86 ± 0.015 | 1.33 ± 0.047 | 3.534 ± 0.013 | 4.454 ± 0.0039 |
| S70R N208Y | 1.444 ± 0.0064 | 1.46 ± 0.026 | 2.66 ± 0.045 | 4.2522 ± 0.0022 |
| A27T A87T S102G N316I L330P Q352R | 1.04 ± 0.011 | 1.44 ± 0.038 | 3.624 ± 0.013 | 4.5229 ± 0.003 |
| G103D H202Y P284T | 1.5 ± 0.016 | 1.64 ± 0.075 | 2.85 ± 0.11 | 4.458 ± 0.0062 |
| K203N D278V S280L I283V | 1.8 ± 0.022 | 1.73 ± 0.085 | 3.192 ± 0.021 | 4.401 ± 0.009 |
| V96M | 2.315 ± 0.015 | 1.46 ± 0.048 | 1.73 ± 0.53 | 4.175 ± 0.006 |
| S97T F161V | 2.22 ± 0.032 | 1.59 ± 0.087 | 2.49 ± 0.21 | 4.47 ± 0.016 |
| L56M Q317L | 1.07 ± 0.085 | 1.44 ± 0.3 | 3.96 ± 0.044 | 4.485 ± 0.018 |
| S70R S190C | 1.547 ± 0.0043 | 1.47 ± 0.017 | 2.64 ± 0.029 | 4.2816 ± 0.0016 |
| S70R S97T F161V | 1.71 ± 0.068 | 1.16 ± 0.12 | 3.29 ± 0.059 | 4.429 ± 0.023 |
| L56M A194V | 2.393 ± 0.016 | 1.42 ± 0.045 | 3.9036 ± 0.0036 | 4.549 ± 0.0059 |
| A87P V301M E357G | 2.37 ± 0.024 | 1.18 ± 0.053 | 4.51 ± 0.0073 | 3.619 ± 0.014 |
| V80L I83M S97T | 1.986 ± 0.0056 | 1.55 ± 0.025 | 1.99 ± 0.077 | 3.8535 ± 0.0021 |
| S69T S279T | 1.28 ± 0.013 | 1.56 ± 0.053 | 2.7 ± 0.11 | 4.428 ± 0.0047 |
| M42L V66I S93N D132V | 1.646 ± 0.0068 | 1.59 ± 0.033 | 2.55 ± 0.058 | 4.1768 ± 0.0024 |
| S70R I83F | 1.24 ± 0.028 | 1.36 ± 0.079 | 3.18 ± 0.04 | 4.347 ± 0.0092 |

| Variant | EC50 for IPTG (log10 µmol/L) (IPTG [1]) | Hill coefficient n (IPTG [2]) | basal output G0 (log10) (IPTG [3]) | saturating output G-infinity (log10) (IPTG [4]) |
| --- | --- | --- | --- | --- |
| V80L A87P V301M E357G | 1.57 ± 0.045 | 1.15 ± 0.079 | 4.52 ± 0.015 | 3.493 ± 0.02 |
| S70R | 1.42 ± 0.021 | 1.44 ± 0.064 | 2.58 ± 0.09 | 4.22 ± 0.0077 |
| S120G M223L F226L L319F R355L | 2.248 ± 0.015 | 1.51 ± 0.035 | 2.781 ± 0.021 | 4.407 ± 0.0067 |
| S93N V99E S102R L198Q S260F A337S | 0.634 ± 0.024 | 1.31 ± 0.088 | 3.834 ± 0.012 | 4.443 ± 0.0046 |
| I160F L185F | 3.06 ± 0.056 | 1.77 ± 0.11 | 2.08 ± 0.16 | 4.19 ± 0.048 |
| V80L L169P | 2.47 ± 0.026 | 1.2 ± 0.077 | 1.86 ± 0.58 | 3.696 ± 0.0083 |
| P76Q V150A N157D Q181H I210L M254T I283N | 2.23 ± 0.046 | 1.11 ± 0.11 | 4.237 ± 0.007 | 3.925 ± 0.008 |
| V301M | 1.82 ± 0.049 | 1.53 ± 0.16 | 2.32 ± 0.83 | 4.469 ± 0.021 |
| Y273H D278G Q335L E357G | 3.07 ± 0.09 | 1.62 ± 0.14 | 2.16 ± 0.11 | 4.07 ± 0.075 |
| E11K A67P F161S A186V M230L D344N | 0.815 ± 0.031 | 1.44 ± 0.11 | 3.548 ± 0.033 | 4.236 ± 0.006 |
| E100V T299I | 0.9867 ± 0.0075 | 1.54 ± 0.032 | 3.09 ± 0.037 | 4.4562 ± 0.0024 |
| A109E D165V G166A R255C E259G | 0.842 ± 0.018 | 1.33 ± 0.06 | 3.421 ± 0.019 | 4.417 ± 0.0048 |
| L169P | 2.678 ± 0.026 | 1.34 ± 0.061 | 2.72 ± 0.067 | 4.3 ± 0.0095 |
| S70R V96E T154I S158R V238D M254I V264I | 3.671 ± 0.018 | 3 ± 0.23 | 4.516 ± 0.0061 | 3.396 ± 0.026 |
| E36V Q89H D132G A138D E277A Q306E S322T | 2.315 ± 0.02 | 1.54 ± 0.044 | 2.12 ± 0.15 | 4.363 ± 0.01 |
| G91D V94A R101G S158C T167M E172D A176S F226Y T276S T299A | 2.31 ± 0.027 | 1.25 ± 0.063 | 4.329 ± 0.0062 | 3.63 ± 0.0095 |
| G200C | 2.729 ± 0.016 | 1.58 ± 0.049 | 1.48 ± 0.68 | 4.489 ± 0.0069 |
| L56M D130E | 0.886 ± 0.058 | 1.42 ± 0.21 | 4.026 ± 0.027 | 4.51 ± 0.011 |
| S97T V136E | 1.37 ± 0.038 | 1.42 ± 0.12 | 3.05 ± 0.078 | 4.331 ± 0.013 |
